31 molecules from patent publication US20030148956A1 (PROCTER AND GAMBLE, published 2003) can be followed below.

Ends that are not written are not given here.

One experiment addresses T1, CRF2R.
T1 sequence (Q13324 whole entry, species assumed, looked up): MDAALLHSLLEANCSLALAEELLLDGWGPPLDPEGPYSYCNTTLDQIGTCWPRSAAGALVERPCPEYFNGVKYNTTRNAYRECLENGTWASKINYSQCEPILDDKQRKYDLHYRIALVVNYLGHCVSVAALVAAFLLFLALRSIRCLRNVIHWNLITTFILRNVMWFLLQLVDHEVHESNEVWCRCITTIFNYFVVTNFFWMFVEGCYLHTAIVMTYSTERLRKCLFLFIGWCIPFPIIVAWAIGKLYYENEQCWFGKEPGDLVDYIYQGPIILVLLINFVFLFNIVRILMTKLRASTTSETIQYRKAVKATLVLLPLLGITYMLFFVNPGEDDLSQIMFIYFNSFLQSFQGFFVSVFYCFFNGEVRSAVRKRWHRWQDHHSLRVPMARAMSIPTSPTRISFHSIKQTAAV
Put plainly: cell-based or functional assay.

A further experiment addresses CRF1R. In words: cell-based or functional assay.

B1: SEQ ID NO 141 (peptide)
peptide: IVLSLDVPIGLLQILLEQARAAAREQATTNARILARV-NH2
On to B1, for which, in the experiment with CRF2R, the “CRF2R EC50” value was over 100 nM and the “CRF2R Emax” value came to 29%. Moreover, in the experiment with CRF1R, the “CRF1R EC50” value is over 100 nM and the “CRF1R Emax” value was determined as 7%.

B2: SEQ ID NO 116 (peptide)
peptide: IVLSLDVPIGLLQILLEQTKANAAREQATTVARILARV-NH2
Regarding B2, in the experiment with CRF2R, the “CRF2R EC50” value came out at 100 nM and the “CRF2R Emax” value stood at 26.4%. Moreover, in the experiment with CRF1R, the “CRF1R EC50” value was found to be 100 nM and the “CRF1R Emax” value was 4.8%.

B3: SEQ ID NO 139 (peptide)
peptide: IVLSLDVPIGLLQILLEQAAAREQATTNARILARV-NH2
Take B3: in the experiment with CRF2R, the “CRF2R EC50” value was found to be 42.6 nM and the “CRF2R Emax” value was 60%. In addition, in the experiment with CRF1R, the “CRF1R EC50” value is over 100 nM and the “CRF1R Emax” value came out at 4%.

B4: SEQ ID NO 123 (peptide)
peptide: IVLSLDVPIGLLQILLEQARQEAAREQATTNARILARV-NH2
On to B4, for which, in the experiment with CRF2R, the “CRF2R EC50” value stood at 3.49 nM and the “CRF2R Emax” value worked out at 93.8%. Also, in the experiment with CRF1R, the “CRF1R EC50” value is over 1000 nM and the “CRF1R Emax” value came to 9.6%.

B5: SEQ ID NO 132 (peptide)
peptide: IVLSLDVPIGLLQILLEQEKEKKRKETNARILARV-NH2
Regarding B5, in the experiment with CRF2R, the “CRF2R EC50” value was 7.53 nM and the “CRF2R Emax” value stood at 88%. Also, in the experiment with CRF1R, the “CRF1R EC50” value is over 100 nM and the “CRF1R Emax” value was 8%.

B6: SEQ ID NO 117 (peptide)
peptide: IVLSLDVPIGLLQILLEQTKARAAREQATTNARILARV-NH2
As to B6, the “CRF2R EC50” value with CRF2R turned out to be 9.41 nM. Also, the “CRF1R EC50” value in the experiment with CRF1R worked out at 100 nM.

B7: SEQ ID NO 128 (peptide)
peptide: IVLSLDVPIGLLQILLEQTRARAAREQATTNARILARV-NH2
Take B7: in the experiment with CRF2R, the “CRF2R EC50” value was found to be 2.85 nM and the “CRF2R Emax” value came to 98%. In addition, in the experiment with CRF1R, the “CRF1R EC50” value is over 100 nM and the “CRF1R Emax” value amounted to 8%.

B8: SEQ ID NO 129 (peptide)
peptide: IVLSLDVPIGLLQILLEQTKARAAREQATTNARILARV-NH2
In the case of B8, the “CRF2R EC50” value in the experiment with CRF2R is 3.83 nM. For the same molecule, the “CRF1R EC50” value in the experiment with CRF1R was over 100 nM.

B9: SEQ ID NO 127 (peptide)
peptide: IVLSLDVPIGLLQILLEQAKARAAREQATTNARILARV-NH2
Consider B9, for which the “CRF2R EC50” value in the experiment with CRF2R amounted to 7.79 nM. The “CRF1R EC50” value with CRF1R is over 100 nM.

B10: SEQ ID NO 130 (peptide)
peptide: IVLSLDVPIGLLQILLEQARADAAREQATTNARILARV-NH2
With B10, in the experiment with CRF2R, the “CRF2R EC50” value amounted to 8.57 nM and the “CRF2R Emax” value was determined as 92%. Besides, in the experiment with CRF1R, the “CRF1R EC50” value was over 100 nM and the “CRF1R Emax” value was determined as 9%.

B11: SEQ ID NO 125 (peptide)
peptide: IVLSLDVPIGLLQILLEQEKQEAAREQATTNARILARV-NH2
B11: in the experiment with CRF2R, the “CRF2R EC50” value came to 4.47 nM and the “CRF2R Emax” value stood at 99%. In the experiment with CRF1R, the “CRF1R EC50” value was over 100 nM and the “CRF1R Emax” value is 9%.

B12: SEQ ID NO 122 (peptide)
peptide: IVLSLDVPIGLLQILLEQARAEAAREQATTNARILARV-NH2
Take B12: in the experiment with CRF2R, the “CRF2R EC50” value was 3.31 nM and the “CRF2R Emax” value was 97%. In the experiment with CRF1R, the “CRF1R EC50” value turned out to be 1000 nM and the “CRF1R Emax” value is 10.7%.

B13: SEQ ID NO 133 (peptide)
peptide: IVLSLDVPIGLLQILLEQRRAAREQATTNARILARV-NH2
With B13, in the experiment with CRF2R, the “CRF2R EC50” value amounted to 12.2 nM and the “CRF2R Emax” value came out at 88%. In the experiment with CRF1R, the “CRF1R EC50” value is over 100 nM and the “CRF1R Emax” value was 4%.

B14: SEQ ID NO 118 (peptide)
peptide: IVLSLDVPIGLLQILLEQERQEAAREQATTNARILARV-NH2
Consider B14, for which, in the experiment with CRF2R, the “CRF2R EC50” value was 14.6 nM and the “CRF2R Emax” value was 100%. For the same molecule, in the experiment with CRF1R, the “CRF1R EC50” value was over 100 nM and the “CRF1R Emax” value was 5%.

B15: SEQ ID NO 135 (peptide)
peptide: IVLSLDVPIGLLQILLEQAARAAREQATTNARILARV-NH2
Take B15: in the experiment with CRF2R, the “CRF2R EC50” value was over 100 nM and the “CRF2R Emax” value was determined as 76%. For the same molecule, in the experiment with CRF1R, the “CRF1R EC50” value was over 100 nM and the “CRF1R Emax” value was found to be 6%.

B16: SEQ ID NO 136 (peptide)
peptide: IVLSLDVPIGLLQILLEQRAAREQATTNARILARV-NH2
B16: in the experiment with CRF2R, the “CRF2R EC50” value is 23.4 nM and the “CRF2R Emax” value is 68%. Also, in the experiment with CRF1R, the “CRF1R EC50” value is over 100 nM and the “CRF1R Emax” value amounted to 8%.

B17: SEQ ID NO 138 (peptide)
peptide: IVLSLDVPIGLLQILLEQAAREQATTNARILARV-NH2
With B17, in the experiment with CRF2R, the “CRF2R EC50” value was 59 nM and the “CRF2R Emax” value amounted to 46%. For the same molecule, in the experiment with CRF1R, the “CRF1R EC50” value is over 100 nM and the “CRF1R Emax” value was determined as 5%.

B18: SEQ ID NO 137 (peptide)
peptide: IVLSLDVPIGLLQILLEQRARAAREQATTNARILARV-NH2
On to B18, for which, in the experiment with CRF2R, the “CRF2R EC50” value was found to be 36.9 nM and the “CRF2R Emax” value was 100%. For the same molecule, in the experiment with CRF1R, the “CRF1R EC50” value is over 100 nM and the “CRF1R Emax” value worked out at 4%.

B19: SEQ ID NO 115 (peptide)
peptide: IVLSLDVPIGLLQILLEQEKQRAAREQATTNARILARV-NH2
For the molecule B19, in the experiment with CRF2R, the “CRF2R EC50” value was 13.6 nM and the “CRF2R Emax” value amounted to 98%. Further, in the experiment with CRF1R, the “CRF1R EC50” value is over 100 nM and the “CRF1R Emax” value worked out at 7%.

B20: SEQ ID NO 124 (peptide)
peptide: IVLSLDVPIGLLQILLEQAKQEAAREQATTNARILARV-NH2
B20: in the experiment with CRF2R, the “CRF2R EC50” value amounted to 3.49 nM and the “CRF2R Emax” value came to 94%. In addition, in the experiment with CRF1R, the “CRF1R EC50” value is over 100 nM and the “CRF1R Emax” value was 6%.

B21: SEQ ID NO 134 (peptide)
peptide: IVLSLDVPIGLLQILLEQAAAAREQATTNARILARV-NH2
Take B21: in the experiment with CRF2R, the “CRF2R EC50” value was over 100 nM and the “CRF2R Emax” value was 19%. For the same molecule, in the experiment with CRF1R, the “CRF1R EC50” value was over 100 nM and the “CRF1R Emax” value came to 7%.

B22: SEQ ID NO 126 (peptide)
peptide: IVLSLDVPIGLLQILLEQTRADAAREQATTNARILARV-NH2
As for B22, in the experiment with CRF2R, the “CRF2R EC50” value stood at 13 nM and the “CRF2R Emax” value came out at 91%. Besides, in the experiment with CRF1R, the “CRF1R EC50” value was over 100 nM and the “CRF1R Emax” value came out at 7%.

B23: SEQ ID NO 119 (peptide)
peptide: IVLSLDVPIGLLQILLEQERARAAREQATTNARILARV-NH2
As for B23, in the experiment with CRF2R, the “CRF2R EC50” value is 3.57 nM and the “CRF2R Emax” value worked out at 95%. For the same molecule, in the experiment with CRF1R, the “CRF1R EC50” value is over 100 nM and the “CRF1R Emax” value came out at 3%.

B24: SEQ ID NO 131 (peptide)
peptide: IVLSLDVPIGLLQILLEQAKADAAREQATTNARILARV-NH2
With B24, in the experiment with CRF2R, the “CRF2R EC50” value was 5.25 nM and the “CRF2R Emax” value was determined as 91%. In the experiment with CRF1R, the “CRF1R EC50” value is over 100 nM and the “CRF1R Emax” value turned out to be 8%.

B25: SEQ ID NO 120 (peptide)
peptide: IVLSLEVPIGLLQILLEQARARAAREQATTNARILARV-NH2
Turning to B25, in the experiment with CRF2R, the “CRF2R EC50” value is 69.9 nM and the “CRF2R Emax” value was 100%. Also, in the experiment with CRF1R, the “CRF1R EC50” value was 100 nM and the “CRF1R Emax” value amounted to 7%.

B26: SEQ ID NO 142 (peptide)
peptide: ZGPPISIDLSLELLRKMIEIEKQEKEKQQATTNARILARV
modifications: C-terminal amide
For the molecule B26, in the experiment with CRF2R, the “CRF2R EC50” value was 9.08 nM and the “CRF2R Emax” value came to 77%. In addition, in the experiment with CRF1R, the “CRF1R EC50” value is 43.5 nM and the “CRF1R Emax” value was 85.3%.

B27: SEQ ID NO 143 (peptide)
peptide: ZGPPISIDLPLELLRKMIEIEKQEKEKQQATTNARILARV
modifications: C-terminal amide
In the case of B27, in the experiment with CRF2R, the “CRF2R EC50” value turned out to be 11.1 nM and the “CRF2R Emax” value turned out to be 85.5%. Moreover, in the experiment with CRF1R, the “CRF1R EC50” value amounted to 232 nM and the “CRF1R Emax” value was 100%.

B28: SEQ ID NO 144 (peptide)
peptide: ZGPPISIDLPLQLLRKMIEIEKQEKEKQQATTNARILARV
modifications: C-terminal amide
For B28, in the experiment with CRF2R, the “CRF2R EC50” value is 9.16 nM and the “CRF2R Emax” value is 85.5%. For the same molecule, in the experiment with CRF1R, the “CRF1R EC50” value is 567 nM and the “CRF1R Emax” value came to 100%.

B29: SEQ ID NO 12 (peptide)
peptide: ZGPPISIDLPFQLLRKMIEIEKQEKEKQQATNNRLLLATV
modifications: C-terminal amide
Turning to B29, in the experiment with CRF2R, the “CRF2R EC50” value turned out to be 9.72 nM and the “CRF2R Emax” value worked out at 91%. In addition, in the experiment with CRF1R, the “CRF1R EC50” value worked out at 928 nM and the “CRF1R Emax” value is 73%.

B30: SEQ ID NO 14 (peptide)
peptide: ZGPPISIDLPFQLLRKMIEIEKQEKEKQQATNNRLLLDTI
modifications: C-terminal amide
Take B30: in the experiment with CRF2R, the “CRF2R EC50” value was 6.33 nM and the “CRF2R Emax” value came out at 90%. Moreover, in the experiment with CRF1R, the “CRF1R EC50” value came to 109 nM and the “CRF1R Emax” value came out at 92%.

B31: SEQ ID NO 13 (peptide)
peptide: ZGPPISIDLPFQLLRKMIEIEKQEKEKQQATTNRLLLDTI
modifications: C-terminal amide
Turning to B31, in the experiment with CRF2R, the “CRF2R EC50” value stood at 3.88 nM and the “CRF2R Emax” value is 79%. Further, in the experiment with CRF1R, the “CRF1R EC50” value was 97.7 nM and the “CRF1R Emax” value was found to be 69%.
